{"source": "patent US20090099080A1", "about": "(UNIVERSITY OF MASSACHUSETTS, published 2009)", "target": "T1, GST (UniProt P08515 1-218 = GST)", "T1 construct": "Control for the GST fusion baits; also called glutathione S-transferase (control)", "T1 sequence (P08515 whole entry, the tested form may be a part)": "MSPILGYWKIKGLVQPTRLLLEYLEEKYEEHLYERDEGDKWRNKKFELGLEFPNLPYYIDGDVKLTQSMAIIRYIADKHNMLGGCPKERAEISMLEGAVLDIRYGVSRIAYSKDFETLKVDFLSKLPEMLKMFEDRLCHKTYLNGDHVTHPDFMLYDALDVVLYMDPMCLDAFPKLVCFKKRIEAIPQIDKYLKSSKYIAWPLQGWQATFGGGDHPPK", "test": "GST pull down of recombinant CypD, CypD immunoblot"}
{"binder": "recombinant CypD (purified, in solution) (enzyme) not shown", "values": [{"measurement": "binding result", "result": "no binding"}]}
